# Where a chain is given by its changes, count along the chain named. Names may count otherwise.
# B1: target 1 insU 3' of 17,insC 3' of 15 (mixed)
# RNA 1: CACCCGUGCAAAAAUGCAGGGGUCUAAAACUGAGCGGAUAACCUCUCUAUGG
# RNA 2: GGGAAUGGAUCCACAUCUACGAAUUCGUACCAUAGUAGCAGGUUAUCCGCUCACCGAGAUCGGAAGAGCACACGU
# B2: target 1 insC 3' of 22,insC 3' of 22 (mixed)
# RNA 1: B1 RNA 1
# RNA 2: B1 RNA 2 with A32C, U33C, G35U, U36A, A37G, G38A, C39G
# B3: target 1 U3A,A20U (mixed)
# RNA 1: B1 RNA 1
# RNA 2: GGGAAUGGAUCCACAUCUACGAAUUCGUACCUUAGAGAGGUUAUCCGCACACCGAGAUCGGAAGAGCACACGU
# B4: target 1 insG 3' of 11,insC 3' of 1 (mixed)
# RNA 1: B1 RNA 1
# RNA 2: GGGAAUGGAUCCACAUCUACGAAUUCGUACCAUAGAGAGGUGUAUCCGCUCACCCGAGAUCGGAAGAGCACACGU
# B5: target 1 insA 3' of 17,insA 3' of 17 (mixed)
# RNA 1: B1 RNA 1
# RNA 2: B1 RNA 2 with U36A, G38A, C39G
# B6: target 1 insG 3' of 11,insA 3' of 2 (mixed)
# RNA 1: B1 RNA 1
# RNA 2: B4 RNA 2 with C53A
# B7: target 1 insG 3' of 11,insG 3' of 1 (mixed)
# RNA 1: B1 RNA 1
# RNA 2: B4 RNA 2 with C53G
# B8: target 1 del11,del16 (mixed)
# RNA 1: B1 RNA 1
# RNA 2: GGGAAUGGAUCCACAUCUACGAAUUCGUACCAUAGGAGGUAUCCGCUCACCGAGAUCGGAAGAGCACACGU
# B9: target 1 insG 3' of 14,insA 3' of 2 (mixed)
# RNA 1: B1 RNA 1
# RNA 2: B4 RNA 2 with U41G, G42U, C53A
# B10: target 1 insA 3' of 10,insU 3' of 2 (mixed)
# RNA 1: B1 RNA 1
# RNA 2: B4 RNA 2 with G42U, U43A, A52U, C53A
# B11: target 1 insG 3' of 14,insG 3' of 1 (mixed)
# RNA 1: B1 RNA 1
# RNA 2: B4 RNA 2 with U41G, G42U, C53G
# B12: target 1 insG 3' of 14,insU 3' of 1 (mixed)
# RNA 1: B1 RNA 1
# RNA 2: B4 RNA 2 with U41G, G42U, C53U
# B13: target 1 insC 3' of 15,insC 3' of 9 (mixed)
# RNA 1: B1 RNA 1
# RNA 2: B1 RNA 2 with U36A, A37G, G38C, C39A, A40G, G42U, U44A, A45C
# B14: target 1 insG 3' of 19,insU 3' of 15 (mixed)
# RNA 1: B1 RNA 1
# RNA 2: B1 RNA 2 with A34G, G35A, U36G, C39U
# B15: target 1 del1,del2 (mixed)
# RNA 1: B1 RNA 1
# RNA 2: GGGAAUGGAUCCACAUCUACGAAUUCGUACCAUAGAGAGGUUAUCCGCUCCGAGAUCGGAAGAGCACACGU
# B16: target 1 insU 3' of 15,insG 3' of 2 (mixed)
# RNA 1: B1 RNA 1
# RNA 2: B4 RNA 2 with A38U, G39A, U41G, G42U, A52G, C53A
# B17: target 1 C4G,C6A (mixed)
# RNA 1: B1 RNA 1
# RNA 2: B3 RNA 2 with U32A, C46A, C48G, A49U
# B18: target 1 insC 3' of 15,insU 3' of 4 (mixed)
# RNA 1: B1 RNA 1
# RNA 2: B4 RNA 2 with A38C, G39A, U41G, G42U, C51U, A52C, C53A
# B19: target 1 insC 3' of 15,insU 3' of 2 (mixed)
# RNA 1: B1 RNA 1
# RNA 2: B4 RNA 2 with A38C, G39A, U41G, G42U, A52U, C53A
# B20: target 1 insG 3' of 11,insU 3' of 1 (mixed)
# RNA 1: B1 RNA 1
# RNA 2: B4 RNA 2 with C53U
# B21: target 1 insC 3' of 12,insU 3' of 9 (mixed)
# RNA 1: B1 RNA 1
# RNA 2: B4 RNA 2 with U41C, G42U, C46U, G48C, C49G, U50C, C51U, A52C, C53A
# B22: target 1 insC 3' of 19,insG 3' of 19 (mixed)
# RNA 1: B1 RNA 1
# RNA 2: B1 RNA 2 with A34C, U36A, A37G, G38A, C39G
# B23: target 1 insU 3' of 22,insU 3' of 6 (mixed)
# RNA 1: B1 RNA 1
# RNA 2: GGGAAUGGAUCCACAUCUACGAAUUCGUACUCAUAGAGAGGUUAUCCUGCUCACCGAGAUCGGAAGAGCACACGU
# B24: target 1 insG 3' of 11,insC 3' of 11 (mixed)
# RNA 1: B1 RNA 1
# RNA 2: B1 RNA 2 with U36A, A37G, G38A, C39G, A40G, G41U, U43C
# B25: target 1 C2U,A16U (mixed)
# RNA 1: B1 RNA 1
# RNA 2: B3 RNA 2 with U32A, A36U, A49U, C50U
# B26: target 1 insG 3' of 14,insC 3' of 1 (mixed)
# RNA 1: B1 RNA 1
# RNA 2: B4 RNA 2 with U41G, G42U
# B27: target 1 insC 3' of 15,insA 3' of 3 (mixed)
# RNA 1: B1 RNA 1
# RNA 2: B4 RNA 2 with A38C, G39A, U41G, G42U, C51A, A52C, C53A
# B28: target 1 A18U,C21U (mixed)
# RNA 1: B1 RNA 1
# RNA 2: B3 RNA 2 with C31U, U32A, A34U, A49U
# B29: target 1 insG 3' of 21,insU 3' of 12 (mixed)
# RNA 1: B1 RNA 1
# RNA 2: B23 RNA 2 with U31C, C32G, A44U, U45A, C46U, U48C
# B30: target 1 insC 3' of 5,insG 3' of 3 (mixed)
# RNA 1: B1 RNA 1
# RNA 2: B4 RNA 2 with G42U, U43A, A44U, U45C, C47G, G48C, C51G, A52C, C53A
# B31: target 1 U19C,C22A (mixed)
# RNA 1: B1 RNA 1
# RNA 2: B3 RNA 2 with C30A, U32A, U33C, A49U
# B32: target 1 U3A,G12A (mixed)
# RNA 1: B1 RNA 1
# RNA 2: B3 RNA 2 with U32A, G40A
# B33: target 1 U8G,G13U (mixed)
# RNA 1: B1 RNA 1
# RNA 2: B3 RNA 2 with U32A, G39U, U44G, A49U
# B34: target 1 G17A,C21U (mixed)
# RNA 1: B1 RNA 1
# RNA 2: B3 RNA 2 with C31U, U32A, G35A, A49U
# Target: T1, EsCas13d, nuclease-dead (Eubacterium siraeum, UniProt B0MS50, R295A;H300A;R849A;H854A)
# T1 sequence: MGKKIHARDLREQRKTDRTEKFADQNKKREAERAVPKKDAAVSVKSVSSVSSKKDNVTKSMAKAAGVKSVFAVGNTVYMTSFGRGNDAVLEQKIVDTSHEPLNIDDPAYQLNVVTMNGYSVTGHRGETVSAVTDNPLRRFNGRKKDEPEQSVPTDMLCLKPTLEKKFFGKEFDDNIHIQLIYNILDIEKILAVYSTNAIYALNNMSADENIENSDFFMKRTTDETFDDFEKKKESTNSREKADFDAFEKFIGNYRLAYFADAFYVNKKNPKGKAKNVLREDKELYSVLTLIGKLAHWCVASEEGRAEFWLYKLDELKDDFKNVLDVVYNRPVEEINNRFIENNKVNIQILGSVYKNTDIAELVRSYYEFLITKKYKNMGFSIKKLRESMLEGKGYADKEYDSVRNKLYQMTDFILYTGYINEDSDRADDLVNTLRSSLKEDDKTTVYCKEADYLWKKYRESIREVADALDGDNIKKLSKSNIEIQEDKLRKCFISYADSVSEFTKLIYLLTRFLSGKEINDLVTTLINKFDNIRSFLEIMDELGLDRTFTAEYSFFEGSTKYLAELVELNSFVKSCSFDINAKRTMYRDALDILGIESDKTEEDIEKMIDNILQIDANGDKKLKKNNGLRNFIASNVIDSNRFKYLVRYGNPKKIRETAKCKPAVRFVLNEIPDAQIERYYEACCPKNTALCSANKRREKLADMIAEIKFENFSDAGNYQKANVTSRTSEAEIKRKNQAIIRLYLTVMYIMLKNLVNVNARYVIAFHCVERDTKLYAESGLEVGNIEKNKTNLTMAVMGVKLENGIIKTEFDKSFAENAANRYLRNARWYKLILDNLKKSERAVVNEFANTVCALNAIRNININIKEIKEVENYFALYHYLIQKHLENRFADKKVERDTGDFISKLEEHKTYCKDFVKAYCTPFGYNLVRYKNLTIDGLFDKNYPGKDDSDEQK
# Assay: crRNA (strand 1, pre-loaded); Mg2+; 40 mM Tris-HCl pH 7.5, 150 mM NaCl, 6 mM MgCl2, 1 mM DTT, 0.1% Tween-20, 0.2 mg/ml BSA; 25 C; 10 min per concentration, then washed
# Details: tags: His6-TwinStrep-SUMO cleaved; N-terminal SNAP kept (SNAP-Surface 488); label: 3' end held by stalled T7 RNA polymerase
row,Binder,Kd [nM]
1,B1,26.1 ± 1.8
2,B2,17.4 ± 0.7
3,B3,44 ± 4
4,B4,35 ± 6
5,B5,10.8 ± 0.6
6,B6,49 ± 6
7,B7,34 ± 4
8,B8,68 ± 11
9,B9,13.3 ± 1.6
10,B10,13.8 ± 0.7
11,B11,11.3 ± 0.7
12,B12,12.3 ± 1.2
13,B13,20 ± 1.7
14,B14,60 ± 9
15,B15,15.6 ± 0.9
16,B16,9.7 ± 0.7
17,B17,6.7 ± 0.4

row,Binder,Kd [nM]
1,B18,14.3 ± 0.6
2,B19,20.5 ± 1.8
3,B20,56 ± 10
4,B21,14 ± 2.2
5,B22,73 ± 6
6,B23,38 ± 7
7,B24,18 ± 1.7
8,B25,56 ± 11
9,B26,10.4 ± 0.4
10,B27,13 ± 0.8
11,B28,6.5 ± 0.32
12,B29,64 ± 13
13,B30,24.9 ± 2.3
14,B31,43 ± 5
15,B32,4.12 ± 0.33
16,B33,38 ± 8
17,B34,8.1 ± 0.5
